# Measurements reported in paper PMC11402598.
# Several values for one entry are separate records, joined by “and”; a condition that tells them apart may be missing. Identical values can stand only once.
# How the values were obtained:
# [1] = biological target: Fc of human IgG1 (human); assay: cryo-EM structure; pre-SEC O432-17-Fc sample, 0.5 mg/ml in 25 mM Tris pH 8.0, 150 mM NaCl; octahedral symmetry applied; design model refined into the map
# [2] = biological target: O432-17(–) nanoparticle assembled with Fc (human); assay: SEC; in vitro packaging: 1x tetramer, 1x Fc, 1.1x negatively charged trimeric plug, 1x pos36GFP, dialysed 16 h at 25 °C into 25 mM Tris pH 8.0, 200 mM NaCl; Superose 6 10/300 GL; absorbance at 280 and 488 nm
stoichiometry N [1],Substance,stoichiometry N (pos36GFP per nanoparticle) [2]
2,Fc of human IgG1 (domain or fragment),
,positively charged GFP (pos36GFP),9 and 10
